“And” between values parts separate entries of the source, which are not always exact repeats. Identical values can stand only once.
Assays:
[1] = target: K3 proteolytic fragment of the invariant chain (18,000 D, lumenal) (human); experiment: cross-linking
SEC = target: the molecule itself; experiment: SEC
cross-linking = target: the molecule itself; experiment: cross-linking
[2] = target: the molecule itself; experiment: non-reducing SDS-PAGE without cross-linker

## K3 proteolytic fragment of the invariant chain (18,000 D, lumenal) (domain or fragment)
[1]
  stoichiometry N: 3

B1: excess (class II-unassociated) invariant chain from Swei B-LCL (natural protein, human, UniProt P04233-2 1-232, looked up)
chain: MHRRRSRSCREDQKPVMDDQRDLISNNEQLPMLGRRPGAPESKCSRGALYTGFSILVTLLLAGQATTAYFLYQQQGRLDKLTVTSQNLQLENLRMKLPKPPKPVSKMRMATPLLMQALPMGALPQGPMQNATKYGNMTEDHVMHLLQNADPLKVYPPLKGSFPENLRHLKNTMETIDWKVFESWMHHWLLFEMSRHSLEQKPTDAPPKESLELEDPSSGLGVTKQDLGPVPM
modifications: [35S]methionine-labelled; N-linked glycans, endo H-sensitive
SEC
  stoichiometry N: 3

B2: invariant chain (from the class II-negative hybrid cell line 174xCEM.T2) (natural protein, human, UniProt P04233-2 1-232, looked up)
chain: MHRRRSRSCREDQKPVMDDQRDLISNNEQLPMLGRRPGAPESKCSRGALYTGFSILVTLLLAGQATTAYFLYQQQGRLDKLTVTSQNLQLENLRMKLPKPPKPVSKMRMATPLLMQALPMGALPQGPMQNATKYGNMTEDHVMHLLQNADPLKVYPPLKGSFPENLRHLKNTMETIDWKVFESWMHHWLLFEMSRHSLEQKPTDAPPKESLELEDPSSGLGVTKQDLGPVPM
modifications: N-linked glycans, endo H-sensitive; [35S]methionine-labelled in the affinity-purified samples
cross-linking
  stoichiometry N: 3 and 4 and 6
[2]
  stoichiometry N: 2
